Laboratory results taken from US10583180B2, “Method for treating adenosine deaminase severe combined imunodeficiency” (UCL Business PLC, priority 2015, dated 2020).
Entries after “also recorded” stand apart in the source; their conditions may differ.

B1: PEG-ADA: bovine form of ADA conjugated to polyethylene glycol; enzyme replacement therapy (conjugate, UniProt P56658 2-363, looked up)
Adenosine deaminase: AQTPAFNKPKVELHVHLDGAIKPETILYYGRKRGIALPADTPEELQNIIGMDKPLSLPEFLAKFDYYMPAIAGCREAVKRIAYEFVEMKAKDGVVYVEVRYSPHLLANSKVEPIPWNQAEGDLTPDEVVSLVNQGLQEGERDFGVKVRSILCCMRHQPSWSSEVVELCKKYREQTVVAIDLAGDETIEGSSLFPGHVKAYAEAVKSGVHRTVHAGEVGSANVVKEAVDTLKTERLGHGYHTLEDATLYNRLRQENMHFEVCPWSSYLTGAWKPDTEHPVVRFKNDQVNYSLNTDDPLIFKSTLDTDYQMTKNEMGFTEEEFKRLNINAAKSSFLPEDEKKELLDLLYKAYGMPSPASAEQCL
modifications: PEG conjugate (pegademase bovine)
notes: bovine form of ADA conjugated to polyethylene glycol; enzyme replacement therapy

What was measured:
[1] = test system: ADA-deficient SCID; test: Phase I/II clinical trial of autologous CD34+ cells transduced with EFS-ADA lentiviral vector; type: in vivo, human; conditions: weight adjusted dose prior to reinfusion
Excerpt: For the non-controlled, non-randomised Phase I/II clinical trial, to assess the safety and efficacy of autologous transplantation of CD34+ cells from ADA-deficient SCID infants following human ADA cDNA transfer by the EFS-ADA lentiviral vector, subjects received the infusion of their autologous, transduced cells following marrow cytoreduction with busulfan.
Patients were selected on the basis of inclusion and exclusion criteria detailed below. A back-up harvest was retained in case of failure of reconstitution following conditioning and re-infusion of transduced cells. For the transduction protocol, CD34+ cells were purified from G-CSF mobilised PBSCs recovered by leukapheresis (Plerixafor could be added to enhance mobilization), whenever possible or from bone marrow harvested under general anaesthetic. Back up cells of 3×10^6 CD34+/kg were stored from a single procedure if sufficient cell counts were available (and if not previously stored). The remaining CD34+ cells were taken forward for transduction. […] After purification, CD34+ cells were immediately transduced with the lentiviral vector, then evaluated for sterility, cell count, and viability, and immediately infused into patients. Several other tests for safety including testing for RCLs were performed on reinfused cells and results recorded retrospectively. […]

[2] = test system: ADA-SCID patients; conditions: cited from earlier work
[3] = test system: ADA−/− mice; test: Reconstitution of lethally irradiated ADA−/− mice with transduced lin-ve cells, analysed after 12 weeks; conditions: mouse, in vivo
Excerpt: Early models of ADA deficient mice were limited by embryonic or peri-natal lethality as a result of severe hepatocellular and pulmonary damage. A two stage transgenic strategy in which ADA expression is restricted to trophoblasts rescues ADA null mice from pre- and peri-natal lethality and allows post-natal study of mice lacking ADA expression. In this model, many features of the human disease are accurately represented. Mice show abnormalities of thymic architecture with a significant block in thymocyte development at the CD4-CD8- double negative stage. […] In the periphery, there is a profound lymphopaenia with a severe T, B and NK cell deficiency that is seen in humans together with abnormalities in splenic lymphoid architecture and a paucity of splenic T cell populations. Murine ADA deficiency also manifests a number of non-immunological abnormalities including lung, renal, costochondral and neurological changes. Pulmonary problems are present in mice from ˜postnatal day 12 and are associated with significant lung inflammatory changes, eventually leading to the death of mice by postnatal day 22 from pulmonary insufficiency, unless early treatment is initiated. […] Mice were analysed after 12 weeks and compared with ADA−/− mice, mice that had undergone wild type transplant experiments (WT) or mice that had been treated with enzyme replacement therapy alone. […]

Molecule | toxicities of conditioning [1] | overall probability of surviving 20 years on ERT ([2]; estimated) | enzyme activity on a ml to ml basis relative to packed erythrocytes ([2]; in vivo) | patients developing antibodies against bovine epitopes ([2]; in vivo) | probability of surviving the next 12 years ([2]; patient alive 6 months after starting ERT) | T cells in the mononuclear fraction of peripheral blood [3]
CS(=O)(=O)OCCCCOS(C)(=O)=O [Busulfan] | No toxicities; also recorded: without any significant toxicity | – | – | – | – | –
B1 | – | 78% | ~1800 times | ~50% | about 90% | marked increase in T cell recovery
